Results published in PMC5759053 (Glia, 2017).

Target: aquaporin-4 (AQP4) M1 isoform, expressed in HEK 293 cells (UniProt P55088-1 1-323)
Test: co-IP

Sequence of aquaporin-4 (AQP4) M1 isoform, expressed in HEK 293 cells (P55088 whole entry, canonical isoform): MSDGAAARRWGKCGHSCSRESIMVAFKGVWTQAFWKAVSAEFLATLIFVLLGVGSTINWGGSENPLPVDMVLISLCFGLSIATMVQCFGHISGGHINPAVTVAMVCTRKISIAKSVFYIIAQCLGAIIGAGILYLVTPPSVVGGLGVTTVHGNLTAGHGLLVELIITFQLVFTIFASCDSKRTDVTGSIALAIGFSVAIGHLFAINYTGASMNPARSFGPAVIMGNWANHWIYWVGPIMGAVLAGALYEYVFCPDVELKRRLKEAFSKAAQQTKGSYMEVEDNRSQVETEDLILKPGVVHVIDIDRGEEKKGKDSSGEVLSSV

fold TRPM4 co-precipitated with AQP4 in SUR1+ cells against SUR1- cells: 4 fold
B1: TRPM4, expressed in HEK 293 cells (natural protein)
chain: not shown
